± gives the uncertainty stated by the source.

A short description of this data set: self-splicing fitness, log relative to wild type (ln ratio); higher = more splicing; Tetrahymena group I intron in knt gene, E. coli kanamycin selection, DiMSum; sequences stand for … in CUCUCU…GGAGGGAAAAGUUAUCAGGCAUGCACCUGGUAGCUAGUCUUUAAACCAAUAGAUUGCAUCGGUUUAAAAGGCAAGACCGUCAAAUUGCGGGAAAGGGGUCAACAGCCGUUCAGUACCAAGUCUCAGGGGAAACUUUGAGAUGGCCUUGCAAAGGGUAUGGUAAUAAGCUGACGGACAUGGUCCUAACCACGCAGCCAAGUCCUAAGUCAACAGAUCUUCUGUUGAUAUGGAUGCAGUUCACAGACUAAAUGUCGGUCGGGGAAGAUGUAUUCUUCUCAUAAGAUAUAGUCGGACCUCUCCUUAAUGGGAGCUAGCGGAUGAAGUGAUGCAACACUGGAGCCGCUGGGAACUAAUUUGUAUGCGAAAGUAUAUUGAUUAGUUUUGGAGUACUCGUGGUCG
Summed up:
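Six replicate transformations of E. coli BL21(DE3) with a pET-22b(+) library were grown overnight at 37°C or 30°C. The library randomised all eight P1ex-region intron nucleotides, the intron lying in the knt kanamycin-resistance gene, and plates were LB agar with or without 25 μg/mL kanamycin plus 100 μg/mL carbenicillin, 50 μM IPTG and 0.2% rhamnose. Pooled colonies were amplicon-sequenced on an Illumina HiSeq 2500, and fitness is the DiMSum error-weighted combination of wild-type-normalised replicate fold changes, kanamycin versus none.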

CUGGAGCAAUAUUACGUAAC: the “self-splicing fitness (ln)” value was -3.25 ± 0.32 (30 °C) and -1.86 ± 0.3 (37 °C). Turning to AGAGAGCAAUAUUACGGAGU, the “self-splicing fitness (ln)” value (30 °C) is -3.87 ± 0.4 and the “self-splicing fitness (ln)” value (37 °C) is -3.3 ± 0.47. The like results for GUUCAGCAAUAUUACGGGGA were, in that order, -4.6 ± 0.46 and -2.56 ± 0.22.

On to AAUUAGCAAUAUUACGCCGA, for which the “self-splicing fitness (ln)” value is -1.34 ± 0.26 (30 °C) and -0.981 ± 0.21 (37 °C).

On to UAGCAGCAAUAUUACGUGUG, for which the “self-splicing fitness (ln)” value is -1.63 ± 0.064 (30 °C) and -0.7 ± 0.08 (37 °C). Regarding UCAAAGCAAUAUUACGCAGU, the “self-splicing fitness (ln)” value is, setting by setting: (30 °C) -3.16 ± 0.19; (37 °C) -3.42 ± 0.31. The like results for UACCAGCAAUAUUACGUCGA were, in that order, -0.651 ± 0.073 and -0.0658 ± 0.085. Take ACGUAGCAAUAUUACGAUCC: the “self-splicing fitness (ln)” value reads like this: (30 °C) -1.03 ± 0.17; (37 °C) -0.00168 ± 0.18. As for ACGAAGCAAUAUUACGUUGG, the “self-splicing fitness (ln)” value (30 °C) is -3.56 ± 0.16 and the “self-splicing fitness (ln)” value (37 °C) is -2.38 ± 0.17.

On to AUAAAGCAAUAUUACGGAGA, for which the “self-splicing fitness (ln)” value (30 °C) is -3.18 ± 0.19 and the “self-splicing fitness (ln)” value (37 °C) was -1.86 ± 0.19. The like results for AUCCAGCAAUAUUACGAGAA were, in that order, -2.6 ± 0.24 and -1.22 ± 0.22. UGCAAGCAAUAUUACGACGU: the “self-splicing fitness (ln)” value (30 °C) was -1.76 ± 0.1 and the “self-splicing fitness (ln)” value (37 °C) is -1.1 ± 0.13. The like results for CAGCAGCAAUAUUACGUCAG were, in that order, -0.347 ± 0.05 and -0.265 ± 0.06. With UAUUAGCAAUAUUACGACGU, the “self-splicing fitness (ln)” value is, setting by setting: (30 °C) -1.02 ± 0.2; (37 °C) -0.561 ± 0.17. Turning to CCGUAGCAAUAUUACGGUUC, the “self-splicing fitness (ln)” value by setting is: (30 °C) -2.21 ± 0.2; (37 °C) -2.04 ± 0.26. As to UGUCAGCAAUAUUACGAAUC, the “self-splicing fitness (ln)” value is, setting by setting: (30 °C) -2.79 ± 0.28; (37 °C) -1.08 ± 0.22. Turning to UGAUAGCAAUAUUACGGCCG, the “self-splicing fitness (ln)” value by setting is: (30 °C) 0.151 ± 0.1; (37 °C) 0.324 ± 0.15. As to AUGUAGCAAUAUUACGGAAU, the “self-splicing fitness (ln)” value (30 °C) is -1.46 ± 0.082 and the “self-splicing fitness (ln)” value (37 °C) was -0.789 ± 0.11. For AGGUAGCAAUAUUACGUACA, in that order: -0.927 ± 0.016 and -0.257 ± 0.034. For the sequence UCGAAGCAAUAUUACGACUC, under “37 °C”, the “self-splicing fitness (ln)” value was 0.412 ± 0.47. Consider UAAUAGCAAUAUUACGUGAG, for which the “self-splicing fitness (ln)” value is -1.76 ± 0.088 (30 °C) and -1.47 ± 0.12 (37 °C). For AUAAAGCAAUAUUACGUCAC, in that order: -3.46 ± 0.14 and -3.09 ± 0.2.

Regarding UUAUAGCAAUAUUACGCCCA, the “self-splicing fitness (ln)” value was -1.57 ± 0.22 (30 °C) and -0.787 ± 0.26 (37 °C). For GCAAAGCAAUAUUACGGUAU, the “self-splicing fitness (ln)” value reads like this: (30 °C) -1.32 ± 0.072; (37 °C) -0.489 ± 0.096. The like results for CAACAGCAAUAUUACGGUCG were, in that order, -0.273 ± 0.041 and 0.0819 ± 0.056. As for GCAGAGCAAUAUUACGUUGC, the “self-splicing fitness (ln)” value (37 °C) is -1.06 ± 0.43. AGAGAGCAAUAUUACGUUAG: the “self-splicing fitness (ln)” value reads like this: (30 °C) -2.77 ± 0.19; (37 °C) -2.45 ± 0.29. Regarding GCUGAGCAAUAUUACGCGUG, the “self-splicing fitness (ln)” value reads like this: (30 °C) -1.54 ± 0.11; (37 °C) -0.878 ± 0.13.

UUCUAGCAAUAUUACGAGCA: the “self-splicing fitness (ln)” value reads like this: (30 °C) -0.992 ± 0.089; (37 °C) -0.124 ± 0.085. The like results for CGUCAGCAAUAUUACGCAAG were, in that order, -0.161 ± 0.07 and -0.63 ± 0.091. On to CACUAGCAAUAUUACGCCGG, for which the “self-splicing fitness (ln)” value was -0.975 ± 0.073 (30 °C) and -0.471 ± 0.1 (37 °C).

As for GCCAAGCAAUAUUACGCGUU, the “self-splicing fitness (ln)” value (30 °C) was -0.424 ± 0.059 and the “self-splicing fitness (ln)” value (37 °C) stood at 0.358 ± 0.079. As to CCGGAGCAAUAUUACGUCGC, the “self-splicing fitness (ln)” value by setting is: (30 °C) -2.63 ± 0.32; (37 °C) -2.43 ± 0.41. Regarding UACCAGCAAUAUUACGCUGA, the “self-splicing fitness (ln)” value reads like this: (30 °C) -2.43 ± 0.15; (37 °C) -1.21 ± 0.11. The like results for CGCCAGCAAUAUUACGUAUU were, in that order, -3.2 ± 0.093 and -2.71 ± 0.15. For ACACAGCAAUAUUACGUCUA, in that order: -1.27 ± 0.072 and -0.282 ± 0.072. For CACAAGCAAUAUUACGUCUU, in that order: -3.88 ± 0.17 and -2.25 ± 0.14. As for GAACAGCAAUAUUACGAAAU, the “self-splicing fitness (ln)” value is -1.67 ± 0.12 (30 °C) and -0.204 ± 0.14 (37 °C).

Turning to AUCGAGCAAUAUUACGUCCG, the “self-splicing fitness (ln)” value is -3.17 ± 0.31 (30 °C) and -2.94 ± 0.44 (37 °C). As to UAGGAGCAAUAUUACGAGUC, the “self-splicing fitness (ln)” value runs as follows: (30 °C) -3.68 ± 0.33; (37 °C) -2.78 ± 0.3.

As to AAUGAGCAAUAUUACGUCUC, the “self-splicing fitness (ln)” value reads like this: (30 °C) -2.96 ± 0.23; (37 °C) -2.19 ± 0.24. Turning to AUGAAGCAAUAUUACGGCCG, the “self-splicing fitness (ln)” value is -0.163 ± 0.18 (30 °C) and 0.947 ± 0.26 (37 °C). For ACUAAGCAAUAUUACGCAUA, in that order: -1.9 ± 0.14 and -2.14 ± 0.14. ACAUAGCAAUAUUACGUGUU: the “self-splicing fitness (ln)” value (30 °C) was -4.04 ± 0.17 and the “self-splicing fitness (ln)” value (37 °C) was -2.87 ± 0.14. For GUUCAGCAAUAUUACGAAGU, in that order: -0.606 ± 0.098 and -0.391 ± 0.12. In the case of AGAAAGCAAUAUUACGACUU, the “self-splicing fitness (ln)” value (30 °C) was -0.252 ± 0.072 and the “self-splicing fitness (ln)” value (37 °C) worked out at 0.222 ± 0.1. For the sequence GGUAAGCAAUAUUACGUAUG, the “self-splicing fitness (ln)” value (30 °C) is -3.72 ± 0.29 and the “self-splicing fitness (ln)” value (37 °C) was -2.32 ± 0.18.

For the sequence CAACAGCAAUAUUACGGAGA, the “self-splicing fitness (ln)” value is, setting by setting: (30 °C) -3.07 ± 0.2; (37 °C) -1.82 ± 0.2. With CUUAAGCAAUAUUACGAUCC, under “30 °C”, the “self-splicing fitness (ln)” value was -3.31 ± 0.44.

Consider UCACAGCAAUAUUACGACGG, for which the “self-splicing fitness (ln)” value was -0.234 ± 0.066 (30 °C) and 0.353 ± 0.086 (37 °C). With GCUAAGCAAUAUUACGGGAA, the “self-splicing fitness (ln)” value is, setting by setting: (30 °C) -1.56 ± 0.12; (37 °C) -1.16 ± 0.12. Regarding AGACAGCAAUAUUACGAUAG, the “self-splicing fitness (ln)” value is, setting by setting: (30 °C) -3.16 ± 0.2; (37 °C) -1.56 ± 0.26. Consider CAUUAGCAAUAUUACGGAUA, for which the “self-splicing fitness (ln)” value was -2.16 ± 0.12 (30 °C) and -1.42 ± 0.13 (37 °C).

In the case of ACUAAGCAAUAUUACGAUAG, the “self-splicing fitness (ln)” value is, setting by setting: (30 °C) -1.34 ± 0.076; (37 °C) -0.427 ± 0.096. For GAUGAGCAAUAUUACGGCUA, in that order: -1.01 ± 0.17 and -1.41 ± 0.17.

Regarding GGAGAGCAAUAUUACGGAGG, the “self-splicing fitness (ln)” value (30 °C) is -2.93 ± 0.48 and the “self-splicing fitness (ln)” value (37 °C) was -0.819 ± 0.23. Consider UCAAAGCAAUAUUACGUACG, for which the “self-splicing fitness (ln)” value was -0.29 ± 0.067 (30 °C) and 0.0719 ± 0.077 (37 °C). The like results for UGGCAGCAAUAUUACGGGGC were, in that order, -3.67 ± 0.47 and -2.18 ± 0.4. For GCCCAGCAAUAUUACGCUAC, in that order: -3.18 ± 0.21 and -2.72 ± 0.29. The like results for AUGAAGCAAUAUUACGUGAA were, in that order, -1.99 ± 0.088 and -0.731 ± 0.12. In the case of GAGCAGCAAUAUUACGUUCC, the “self-splicing fitness (ln)” value is, setting by setting: (30 °C) -3.51 ± 0.17; (37 °C) -3.28 ± 0.21. The like results for AGAUAGCAAUAUUACGUACU were, in that order, -0.357 ± 0.15 and -0.0062 ± 0.15. As for GCUGAGCAAUAUUACGAGUA, the “self-splicing fitness (ln)” value is -2.25 ± 0.31 (30 °C) and -1.72 ± 0.35 (37 °C). Turning to ACCCAGCAAUAUUACGCGGU, the “self-splicing fitness (ln)” value is -3.41 ± 0.18 (30 °C) and -3.42 ± 0.21 (37 °C). The like results for UUUGAGCAAUAUUACGGGUU were, in that order, -3.23 ± 0.34 and -2.91 ± 0.48. The like results for GCUUAGCAAUAUUACGGAUU were, in that order, -1.15 ± 0.1 and -0.911 ± 0.11.

On to CUUGAGCAAUAUUACGCACG, for which the “self-splicing fitness (ln)” value was -3.3 ± 0.44 (30 °C) and -2.48 ± 0.43 (37 °C).

AUGCAGCAAUAUUACGUAUC: the “self-splicing fitness (ln)” value is -4.58 ± 0.41 (30 °C) and -2.76 ± 0.4 (37 °C).

For GGCAAGCAAUAUUACGGGUG, the “self-splicing fitness (ln)” value runs as follows: (30 °C) -0.914 ± 0.055; (37 °C) -0.195 ± 0.066. Regarding CGCCAGCAAUAUUACGGCGA, the “self-splicing fitness (ln)” value (30 °C) is -3.29 ± 0.23 and the “self-splicing fitness (ln)” value (37 °C) was -1.84 ± 0.18. The like results for CACGAGCAAUAUUACGAGGC were, in that order, -3.19 ± 0.26 and -1.81 ± 0.24. The like results for AACUAGCAAUAUUACGGAAG were, in that order, -2.57 ± 0.13 and -1.49 ± 0.12. CGUCAGCAAUAUUACGUUGG: the “self-splicing fitness (ln)” value was -3.57 ± 0.11 (30 °C) and -2.78 ± 0.16 (37 °C). Regarding UCCUAGCAAUAUUACGCGCG, the “self-splicing fitness (ln)” value is, setting by setting: (30 °C) -4.03 ± 0.29; (37 °C) -2.45 ± 0.31.

Take UAUCAGCAAUAUUACGAUGC: the “self-splicing fitness (ln)” value by setting is: (30 °C) -3.83 ± 0.37; (37 °C) -1.82 ± 0.22.

The values above are taken from the supplement of paper PMC7877785.
